B1: TPR t1 (parent)
chain: GACCAAUCUGCCCUCAGAGCUCGAGAACAUCUUCGGAUGCAGAGGAGGCAGGCUUCGGUGGCGCGAUAGCGCCAACGUCCUCAACCUCCAAUGCAUCCCACCACAUGAUGAUGCCUGAAGAGCCUUGGUUUUUUG

Variants of: B1
Assay: polymerase ribozyme fitness, log enrichment relative to wild type (log ratio); higher = more active; in vitro selection for triplet polymerase activity
Procedure, shortened: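 Mutant libraries of both subunits of a heterodimeric triplet polymerase ribozyme were PCR-built, transcribed, and selected once in triplicate, with frozen incubation at −7 °C and capture of gel-excised extended constructs on streptavidin beads before RT-PCR. Illumina sequencing of input and output libraries was filtered to genotypes with ≥10 input reads and ≥1 read per output. Fitness is the logarithm of genotype enrichment over wild-type enrichment, using inverse-variance-weighted replicate averages. The logarithm is base 2.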

Point of comparison: C8U A18U U116C, “polymerase ribozyme fitness (log ratio)” value -2.04. Against it:
- C8G G19A — within 0.2 log units, -1.89
- C8G C11U C22G C72U — lower, -3.41
- C8G G36U A119G U133G — higher, 0.386
- C8G G19A A46C G71A — lower, -3.53
- C8G A29U — higher, -1.15
- C8U A27U C34U G48U G60A C98U U112C G117U — lower, -7.25
- C8U A46U G61A C101A G113U — lower, -2.36
- C8U A37U C86A — higher, -0.897
- C8G C70A — higher, -0.64
- C8G U78C G93A C123A — higher, 1.83
- C8G C86G C89U G93A — higher, -0.898
- C8G A50U G61U — higher, 0.00345
- C8G C13G G17A G122A — higher, -0.902
- C8G U54G C89G — higher, -1.05
- C8G C73U A119U — higher, 0.0435
- C8G U14G C53U G71U — higher, 0.478
- C8G A46G G110A — higher, -0.456
- C8G C13G A37C G52C C62G C86U — lower, -4.08
- C8G C15G U21C G36A C82U U112A — higher, -1.27
- C8G G19C C20U U21G U54C U87G — lower, -4.85
- C8G A50U G60U C123A G128U U130A — higher, -0.561
- C8G C124U — higher, 0.949
- C8U A37U C49G U55A C104A — higher, -1.74
- C8G U38A U54G C62A C98A C123U — lower, -7.56
- C8G C12G C114G — lower, -2.57
- C8G C15U G39A C62G — lower, -2.54
- C8U C11A C124U — higher, 1.17
- C8G C72G — higher, 0.418
- C8G C72U — higher, 0.18
- C8G G107U — lower, -5
- C8G G60C U81A C123A — higher, 0.434
- C8G G128C — higher, -0.73
- C8G C13G C15G C34A A46C C88U C123U — lower, -5.49
- C8G U87A C101A A105C — lower, -3.4
- C8G G48C A50U C53A C62G U129C — lower, -2.9
- C8G U14A G57A C97U A103C — lower, -6.07
- C8G A37U U38C G47A U131A — within 0.2 log units, -1.99
- C8G C70G A74U — lower, -4.41
- C8G U14A — higher, 0.372
- C8G A46U G52U C56A C82U C101A — within 0.2 log units, -1.86
- C8G C72A C89A C94G — within 0.2 log units, -1.88
- C8G A46U — higher, -0.191
- C8G C49A G71U U92A C123U — lower, -2.6
- C8G C22G G47A G77U — lower, -4.32
- C8G C13U C79A G117A U126A — higher, -0.523
- C8G C53G A66U G120U — higher, 1.03
- C8G A37C G48U C85A — higher, 0.211
- C8G G47C C86G C124A — higher, 1.6
- C8U A26G U54C C72U — lower, -2.88
- C8G C13A G57C U78G U112A A118U — higher, 0.98
- C8G G93A G113A — higher, -0.312
- C8U C11G C13U C20A G69C C82A A83C C98U U112G — lower, -4.19
- C8G C12U G42C G93A — lower, -2.42
- C8G G47A C97A G120U — lower, -2.93
- C8G G42C C70G — lower, -5.8
- C8U A16C C64U U112C U132A — higher, 1.19
- C8G U14G G36U C80U G120A — higher, 1.03
- C8U A29G C94A U116G — lower, -2.84
- C8U A37G G52A C56U — higher, -0.753
- C8G G69C U96A — lower, -2.59
- C8G G42U G60C U81A U129G — lower, -6.22
- C8G G45A G48A G57A G61U U92G U112G — lower, -6.23
- C8G C13G C40U U54G — higher, 0.0381
- C8G C70U C115U — lower, -2.38
- C8G U54G C115A — higher, 2.13
- C8G A46G C56A A84C C104A C115U A118U A119U — lower, -4.77
- C8G C73U C79U — higher, 0.882
- C8U A16U G47A C56A C101A C124U — higher, -1.44
- C8G C97U U109G C123U — lower, -4.98
- C8G C99U — lower, -2.82
- C8G A95G — higher, 0.646
- C8G C28A G61A — lower, -3.79
- C8G C11U U59A C62A G63U — lower, -5.8
- C8G C94A C104U — higher, 0.226
- C8G G39A C73A C97A — lower, -5.92
- C8U A29U C72A — higher, -1.79
- C8G C62U C115U — higher, -0.929
- C8U A27G G42U C56A A74C C89U A111C — lower, -5.47
- C8G U87A U96G G110U G122C U129C — lower, -3.4
- C8U A50U G69U — higher, -0.24
- C8G C73U — higher, 0.902
- C8G U14G G35C C64U C94U — lower, -3.36
- C8G C70A U92G — lower, -5.61

Source: the RNAGym collection of RNA variant scans (doi:10.1073/pnas.2313332121)
